Measurements: the supplement of paper PMC12764529
± gives the half width of the 95% confidence interval.

Assays:
[1] = folding stability dG unfold from chymotrypsin proteolysis; higher = more stable
In short: (§1)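 K50 was inferred by Bayesian fitting of sequencing counts obtained after protease digestion of designed mini-proteins. Unfolding free energy was derived by comparison with a sequence-predicted unfolded-state K50 and a shared folded-state K50, for each protease or both combined. The mini-proteins were under 80 residues, had no cysteine, were carried in a PA-tagged cDNA display construct, and were kept only if AlphaFold2 dimer inter-PAE exceeded 15.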

[2] = folding stability dG unfold from trypsin proteolysis; higher = more stable
In short: as §1

[3] = folding stability dG unfold (combined trypsin and chymotrypsin); higher = more stable
In short: as §1

Sequence	folding stability dG unfold [1]	folding stability dG unfold [2]	folding stability dG unfold [3]
SAGKIKKIEVKEVTNENGEKYKKITIEVEKEGKKVEIIVNKNGEKFIKVEKNGKTITLPLDEALELLKKSAG [r5_157_TrROS_Hall]	1.19 ± 0.13 kcal/mol	1.23 ± 0.088 kcal/mol	1.23 ± 0.3 kcal/mol
SAGKIKPGQKIKIKITSIEKLKDGTIKIKAEIELEEKGYKITIEAEIKYDKKTKKLTIKVKIKIEPKPSAGG [r19_342_TrROS_Hall]	4.14 ± 0.18 kcal/mol	3.26 ± 0.14 kcal/mol	3.88 ± 0.24 kcal/mol
SAGKIKVYYDPKLGRIIEIPLPNGKRIRIYLPKNKLIIVAEDPEGNKAIPIEIETKIGDIIKIIKEIAGSAG [r5_820_TrMRF]	3.57 ± 0.11 kcal/mol	2.9 ± 0.075 kcal/mol	3.16 ± 0.18 kcal/mol
SAGKINIPPDTDITVKISTEKKPNPPSPEEEEYVGVSYIKVKKNPDGSIEVEEEKFEIISKEEAEKMGLSAG [r5_340_JUSTAS]	0.177 ± 0.31 kcal/mol	0.16 ± 0.13 kcal/mol	0.23 ± 0.28 kcal/mol
SAGKISSIDISPFKLPDGSYPYLLRVSFPDLGTEVDFIFPAKPSDAINFAKELRKSLPNIPLTFSNISSAGG [r19_317_TrMRF]	1.89 ± 0.11 kcal/mol	1.94 ± 0.05 kcal/mol	1.87 ± 0.11 kcal/mol
SAGKKKFITIVIPIEKKEKLKKAVEELKKKFNAKELAVIPNPEKNEIIEVVVKETKDAIIKIVIIAKESAGG [r19_262_TrMRF]	1.26 ± 0.029 kcal/mol	1.68 ± 0.036 kcal/mol	1.45 ± 0.089 kcal/mol
SAGKKKIKIKLENGETKTLEIKPGETVEITFPNGLKATITKVKDGKIEIKVKEVYVKDKNGKWKKLKDLSAG [r5_417_TrROS_Hall]	2.6 ± 0.17 kcal/mol	1.72 ± 0.066 kcal/mol	2.29 ± 0.29 kcal/mol
SAGKKKKIKIKVTIVVPVKTKEDVELMKELAEKFAPELGKETAKKLGLPPEVEEIEVDVNILIVSPEELSAG [r5_436_TrMRF]	1.89 ± 0.13 kcal/mol	1.48 ± 0.14 kcal/mol	1.88 ± 0.2 kcal/mol
SAGKKKKKKLKITIEITYNKETNTVTIKITVDGKEITVEVKAKSKEEALLNALKELEKKLNIKIKEVKLSAG [r5_251_TrROS_Hall]	2.1 ± 0.18 kcal/mol	1.36 ± 0.13 kcal/mol	2.27 ± 0.36 kcal/mol
SAGKKKKKVKKKTVKLTITVKLKPGMTEEEALEKVKELAKALLPPGAKIKEVKFDKETKTVTVEIELTSAGG [r19_81_TrROS_Hall]	2 ± 0.23 kcal/mol	2.15 ± 0.054 kcal/mol	2.25 ± 0.19 kcal/mol
SAGKKKTVTIYLRVETPEEARKLVEELAKKLGAEVTSVEIEKVDGKYYVTVTIKVDGKEIKIVIEFEPSAGG [r19_262_TrROS_Hall]	3.03 ± 0.031 kcal/mol	2.04 ± 0.045 kcal/mol	2.67 ± 0.087 kcal/mol
SAGKKVTILIVVPETEEEAKKLAEELAKELAEKTGLEKVEVKVVPKGMTLEQLKELAKENNVDLVILVSAGG [r19_89_TrROS_Hall]	3.09 ± 0.15 kcal/mol	3.24 ± 0.21 kcal/mol	3.17 ± 0.24 kcal/mol
SAGKKYKVKKKITLTLEDGSKITIEIVENEDGTVEIKITDSNGKTRTITIPKEKLENMSLEELLKLLKSAGG [r19_47_TrROS_Hall]	1.73 ± 0.13 kcal/mol	1.76 ± 0.1 kcal/mol	1.92 ± 0.22 kcal/mol
SAGKLVLKPGETVEIGDMTIHFHPDGRVSATFPDGRSAAIRVTVDTDTDVVGFEFVEEHPDVGHTDAPGSAG [r5_33_TrMRF]	1.12 ± 0.057 kcal/mol	1.74 ± 0.1 kcal/mol	1.47 ± 0.11 kcal/mol
SAGKMVKVEIVIDVPPEEITEEELKAILEEEAEEVEITFDEETGKITITVTVSEEEAEKLREALKELGASAG [r5_378_TrROS_Hall]	1.04 ± 0.13 kcal/mol	1.02 ± 0.13 kcal/mol	1.3 ± 0.26 kcal/mol
SAGKPESFSIEAPPIAPPEFPLGGSYRTLPNGEVLVLITLPDGTVLVLPSLDELRELRESGLPIDISPSSAG [r5_42_TrMRF]	1.17 ± 0.045 kcal/mol	0.959 ± 0.017 kcal/mol	1.07 ± 0.045 kcal/mol
SAGKPGKTIKVTVPIPDSVKNAKIIVEYPNGKSKTITVPAGKNVTITFKVPGSSSVKVRVVLDDGSVIGSAG [r5_664_TrMRF]	2.45 ± 0.046 kcal/mol	2.9 ± 0.075 kcal/mol	2.69 ± 0.054 kcal/mol
SAGKPKVKVKKITVTITYDPETGTITIEATIEIDGKTIKLTITITLPEELRNLKPGDTITIEITIIIEPSAG [r5_714_TrROS_Hall]	2.86 ± 0.13 kcal/mol	3.4 ± 0.17 kcal/mol	3.15 ± 0.12 kcal/mol
SAGKPLPKLKTYEVDVPDNKKVKIEVYKLPDGTAIVKIKDDNGNESEIEIPLSLLENLSVEDLVKLAKSAGG [r19_47_TrMRF]	2.28 ± 0.047 kcal/mol	0.77 ± 0.028 kcal/mol	1.9 ± 0.095 kcal/mol
SAGKPRPVEIDFPMPPGFPNMPPEEMANMIARELDENGLKIEPKNMNPGEPYVRYTVEVNGKPILEITFSAG [r5_80_TrROS]	1.51 ± 0.12 kcal/mol	0.762 ± 0.081 kcal/mol	1.14 ± 0.12 kcal/mol
SAGKQEIKVEAVFPGDTLEEFMEFIREFLAEQGLKIEPTEFEIDKVQPMPGGPMIRVTAWIKIEPPDDSAGG [r19_325_TrROS]	2.95 ± 0.053 kcal/mol	2.31 ± 0.11 kcal/mol	2.8 ± 0.22 kcal/mol
SAGKTITVTSTHPDGRTATVTYTTLPDGSFKITSFTWEPWPDGTVTAKITTPDGTVITVNSIDDILKALSAG [r5_618_TrMRF]	3.52 ± 0.05 kcal/mol	2.4 ± 0.1 kcal/mol	3.27 ± 0.099 kcal/mol
SAGKTVEIKVTLKITRYEKLPDGSVKKEVKTLTITVTMSEEELNKEEIKNALKELLEKLPPDVKKIEITSAG [r5_849_TrROS_Hall]	4.63 ± 0.083 kcal/mol	2.8 ± 0.17 kcal/mol	4.34 ± 0.22 kcal/mol
SAGKVEIVVTYPDGSKAVIDSDNPLVFTITDPDGNSSTISGTGFDEALLKIVELLKEKTGKPVEKVEIKSAG [r5_119_TrMRF]	2.168 ± 0.021 kcal/mol	0.377 ± 0.098 kcal/mol	1.76 ± 0.14 kcal/mol
SAGKVIVIDAEEMTEEELKEILKKTKPGEKILIIAKSKEVAEKLKELGFEVEEVEKVPLTEEELKKLKKSAG [r5_354_TrROS_Hall]	1.27 ± 0.028 kcal/mol	0.835 ± 0.063 kcal/mol	1.08 ± 0.14 kcal/mol
SAGKWKVRTIPLPGFSITIWYDPDEGRIRISITMWMWKPKKDPENGKPKQEHRMMTMEAPIPIPPGAPISAG [r5_195_TrROS]	2.51 ± 0.29 kcal/mol	1.86 ± 0.074 kcal/mol	2.3 ± 0.27 kcal/mol
